According to patent US20080299140A1, “Immunogenic Composition and Peptide Sequences for Prevention and Treatment of an Hsv Condition” (priority 2002, published 2008):

Experiments:
[1] = target: HLA-DR(α1*0101,α1*0101) (human); assay: competition assay on purified HLA; tracer HA (307-319)
[2] = target: HLA-DR(α1*0101,α1*1101) (human); assay: as above
[3] = target: HLA-DR(α1*0101,α5*0101) (human); assay: as above
[4] = target: DRB5=HLA-DR(α1*0101,α5*0101) (human); assay: HLA class II competition binding assay, biotinylated tracer peptide
[5] = target: DR7=HLA-DR(α1*0101,α1*0701) (human); assay: as above
[6] = target: DRB3=HLA-DR(α1*0101,α3*0101) (human); assay: as above
[7] = target: DRB4=HLA-DR(α1*0101,α4*0101) (human); assay: as above
[8] = target: DR1=HLA-DR(α1*0101,α1*0101) (human); assay: as above
[9] = target: DR13=HLA-DR(α1*0101,α1*1301) (human); assay: as above
[10] = target: DR15=HLA-DR(α1*0101,α1*1501) (human); assay: as above
[11] = target: DR3=HLA-DR(α1*0101,α1*0301) (human); assay: as above
[12] = target: DP401=HLA-DP(α1*0101,α1*0401) (human); assay: as above
[13] = target: DR11=HLA-DR(α1*0101,α1*1101) (human); assay: as above
[14] = target: HLA-DR(α1*0101,α1*1501) (human); assay: competition assay on purified HLA; tracer A3 (152-166)
[15] = target: HLA-DR(α1*0101,α1*0301) (human); assay: competition assay on purified HLA; tracer MT (2-16)
[16] = target: HLA-DR(α1*0101,α4*0101) (human); assay: competition assay on purified HLA; tracer E2/E168
[17] = target: HLA-DR(α1*0101,α1*1301) (human); assay: competition assay on purified HLA; tracer B1 (21-36)
[18] = target: HLA-DR(α1*0101,α1*0701) (human); assay: competition assay on purified HLA; tracer YKL
[19] = target: HLA-DP(α1*0101,α1*0401) (human); assay: competition assay on purified HLA; tracer bOxy 271-287
[20] = target: HLA-DR(α1*0101,α3*0101) (human); assay: competition assay on purified HLA; tracer LOL (191-210)
[21] = target: HLA-DR(α1*0101,α1*0401) (human); assay: competition assay on purified HLA; tracer HA (307-319)
[22] = target: DR4=HLA-DR(α1*0101,α1*0401) (human); assay: HLA class II competition binding assay, biotinylated tracer peptide
[23] = target: DP402=HLA-DR(α1*0101,α1*0402) (human); assay: as above
[24] = target: DP (α1*0101, α1*0402) (human); assay: competition assay on purified HLA; tracer bOxy 271-287

| Substance | IC50 [1] [nM] | IC50 [2] [nM] | IC50 [3] [nM] | IC50 [4] [nM] | IC50 [5] [nM] | IC50 [6] [nM] | IC50 [7] [nM] | IC50 [8] [nM] | IC50 [9] [nM] | IC50 [10] [nM] | IC50 [11] [nM] | IC50 [12] [nM] | IC50 [13] [nM] | IC50 [14] [nM] | IC50 [15] [nM] | IC50 [16] [nM] | IC50 [17] [nM] | IC50 [18] [nM] | IC50 [19] [nM] | IC50 [20] [nM] | also measured |
| --- | --- | --- | --- | --- | --- | --- | --- | --- | --- | --- | --- | --- | --- | --- | --- | --- | --- | --- | --- | --- | --- |
| HSV1 1 (gB809-840) (peptide) | 6 | 13 | 6 | 6 | 296 | > 100000 | 43 | 6 | 284 | 3 | 995 | 1610 | 13 | 3 | 995 | 43 | 284 | 296 | 1610 | > 100000 |  |
| HSV1 2 (gB401-433) (peptide) | < 1 |  |  |  | 1 | > 100000 |  | < 1 | > 100000 | 60 | > 100000 |  |  | 60 | > 100000 |  | > 100000 | 1 |  | > 100000 |  |
| HSV1 3 (gB111-140) (peptide) |  |  |  |  |  |  |  |  |  |  |  | 60 |  | 30 |  |  | 500 |  | 80 |  |  |
| HSV1 4 (gB424-445) (peptide) | 30 |  |  |  |  | > 100000 |  | 30 |  |  | > 100000 |  |  |  | > 100000 |  |  |  |  | > 100000 |  |
| HSV1 5 (gB173-204) (peptide) |  |  |  |  |  |  | 90000 |  |  |  |  |  |  |  |  | 90000 |  |  |  |  |  |
| HSV1 6 (gB243-282) (peptide) | 1 |  | 9 | 9 |  |  |  | 1 |  | 1 | 4000 |  |  | 1 | 4000 |  |  |  |  |  |  |
| HSV1 7 (gB631-661) (peptide) |  |  |  |  |  |  |  |  | > 100000 | 60 | > 100000 |  |  | 60 | > 100000 |  | > 100000 |  |  |  |  |
| HSV1 8 (gB765-799) (peptide) | 2 | 4 | 2 | 2 | 20 | 55000 | 232 | 2 | 314 | 3 | 4780 | 107 | 4 | 3 | 4780 | 232 | 314 | 20 | 107 | 55000 |  |
| HSV1 9 (gB837-870) (peptide) | 493 |  | 559 | 559 | 229 | 58000 | 16000 | 493 | 362 | 2430 | 11400 | 8000 |  | 2430 | 11400 | 16000 | 362 | 229 | 8000 | 58000 | IC50 [21]: 4000 nM; IC50 [22]: 4000 nM; IC50 [23]: 4000 nM; IC50 [24]: 4000 nM |
| HSV1 10 (gB80-106) (peptide) |  |  |  |  |  | > 100000 |  |  |  |  |  |  |  |  |  |  |  |  |  | > 100000 |  |
| HSV1 11 (gB453-483) (peptide) |  |  |  |  | 30 | > 100000 |  |  | > 100000 |  | > 100000 |  |  |  | > 100000 |  | > 100000 | 30 |  | > 100000 |  |
| HSV1 12 (gB568-594) (peptide) |  |  |  |  |  |  |  |  | > 100000 |  | > 100000 |  |  |  | > 100000 |  | > 100000 |  |  |  |  |
| HSV1 13 (gB590-612) (peptide) |  |  |  |  |  |  |  |  |  |  |  | > 100000 |  |  |  |  |  |  | > 100000 |  | IC50 [23]: > 100000 nM; IC50 [24]: > 100000 nM |
| HSV1 14 (gB607-634) (peptide) |  |  |  |  |  |  |  |  |  |  |  |  |  |  | > 100000 |  |  |  |  | > 100000 |  |
| HSV1 30 (gD0-28) (peptide) |  | 648 | 7 | 7 | 374 | 535 | > 100000 |  | > 100000 | 11000 | 79 | 17700 | 648 | 11000 |  | > 100000 | > 100000 | 374 | 17900 | 535 | IC50 [23]: 3800 nM; IC50 [24]: 3800 nM |
| HSV1 31 (gD22-52) (peptide) | 3 |  |  |  |  | 6980 | 397 | 3 | > 100000 |  | 2490 | 62000 |  |  | 2490 | 397 | > 100000 |  | 62000 | 5980 | IC50 [21]: 63 nM; IC50 [22]: 63 nM; IC50 [23]: 49000 nM; IC50 [24]: 47000 nM |
| HSV1 32 (gD77-104) (peptide) |  | 300 | 1 | 1 | 4 | > 100000 |  |  |  |  | 2350 | 1450 | 300 |  | 2350 |  |  | 4 | 1450 | > 100000 | IC50 [23]: 381 nM; IC50 [24]: 381 nM |
| HSV1 34 (gD146-179) (peptide) | 40 | 175 | 85 | 85 | 316 | 2020 | 743 | 40 | > 100000 | 35 | 10200 | 115 | 175 | 35 | 10200 | 743 | > 100000 | 316 | 115 | 2020 | IC50 [21]: 632 nM; IC50 [22]: 632 nM |
| HSV1 36 (gD49-82) (peptide) | 3 | 120 | 66 | 66 | 173 | 5000 |  | 3 | > 100000 | 18 | 1250 | 615 | 120 | 18 | 1250 |  | > 100000 | 173 | 615 | 5000 | IC50 [21]: 93 nM; IC50 [22]: 93 nM; IC50 [23]: 98 nM; IC50 [24]: 98 nM |
| HSV1 38 (gD176-206) (peptide) | 54 | 5 | 91 | 91 | 21 | 25000 | 1800 | 54 | 200 |  | 1340 | 91 | 5 |  | 1340 | 1800 | 200 | 21 | 91 | 25000 | IC50 [21]: 955 nM; IC50 [22]: 955 nM |
| HSV1 40 (gD228-257) (peptide) | 1160 | 39 |  |  | 20 | > 100000 | 1160 | 1160 | 1590 | 2 | 2390 | 1360 | 39 | 2 | 2390 | 1160 | 1590 | 20 | 1360 | > 100000 | IC50 [21]: 9920 nM; IC50 [22]: 9920 nM; IC50 [23]: 7210 nM; IC50 [24]: 7210 nM |
| HSV1 41 (gD96-123) (peptide) | 3 | 598 |  |  |  | > 100000 | 1670 | 3 | 4760 | 167 |  | 267 | 598 | 167 |  | 1670 | 4760 |  | 257 | > 100000 |  |
